The values below come from patent publication US20240350546A1 (TEXAS A AND M UNIVERSITY SYSTEM, published 2024).

For this assay, the target named is T1, CD26 on Rv-CD26-transduced Jurkat T cells (human, UniProt P27487 1-766).
T1 construct: whole, on cells; also called membrane CD26
In words: ADA membrane binding efficiency from ADA activity left in medium after 24 h co-culture; Rv-ADA-CD3-293T/CD26-Jurkat T as maximum, 293T/Jurkat T without CD26 as background. As for the experimental part: Next, we investigated the binding efficacy of ADA-CD3 on T cells. Jurkat-Dual (NF-KB &IRF/IFN), Jurkat-Dual transduced with Rv-CD26 (Jurkat-Dual-CD26), Jurkat-NFAT or Jurkat-NFAT transduced with Rv-CD26 (Jurkat-NFAT-CD26) reporter cell lines were co-cultured with Rv-ADA or Rv-ADA-CD3 (scFv) transduced 293 T cells for 24 hours. The cell culture medium was then used to measure ADA by ADA activity assay. ADA membrane binding efficiency was calculated using Rv-ADA-CD3-293T/CD26-Jurkat T as maximum and 293T/JurkatT W/O CD26 as background.

T1 sequence (P27487 whole entry): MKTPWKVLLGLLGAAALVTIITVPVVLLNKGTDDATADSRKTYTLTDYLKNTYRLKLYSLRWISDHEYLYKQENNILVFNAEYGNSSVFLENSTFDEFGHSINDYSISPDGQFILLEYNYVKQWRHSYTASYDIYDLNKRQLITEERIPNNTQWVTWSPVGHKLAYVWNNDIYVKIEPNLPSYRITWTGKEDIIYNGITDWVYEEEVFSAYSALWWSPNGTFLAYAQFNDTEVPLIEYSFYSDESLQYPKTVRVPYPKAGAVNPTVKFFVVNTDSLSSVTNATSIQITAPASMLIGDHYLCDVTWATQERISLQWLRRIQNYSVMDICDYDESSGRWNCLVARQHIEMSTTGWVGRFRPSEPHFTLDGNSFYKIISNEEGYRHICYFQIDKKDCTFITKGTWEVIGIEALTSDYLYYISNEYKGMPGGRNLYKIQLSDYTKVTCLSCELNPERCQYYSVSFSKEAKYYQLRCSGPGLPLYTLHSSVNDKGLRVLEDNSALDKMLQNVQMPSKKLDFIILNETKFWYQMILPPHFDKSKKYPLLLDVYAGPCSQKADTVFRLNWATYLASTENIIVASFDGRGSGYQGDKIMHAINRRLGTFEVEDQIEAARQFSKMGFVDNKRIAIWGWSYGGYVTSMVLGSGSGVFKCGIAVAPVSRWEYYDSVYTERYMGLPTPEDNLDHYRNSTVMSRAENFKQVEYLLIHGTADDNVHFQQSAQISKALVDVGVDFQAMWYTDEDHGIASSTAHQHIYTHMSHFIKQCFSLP

B1: secreted ADA (without CD3-scFv) (enzyme, human, UniProt P00813 1-363, looked up)
chain: MAQTPAFDKPKVELHVHLDGSIKPETILYYGRRRGIALPANTAEGLLNVIGMDKPLTLPDFLAKFDYYMPAIAGCREAIKRIAYEFVEMKAKEGVVYVEVRYSPHLLANSKVEPIPWNQAEGDLTPDEVVALVGQGLQEGERDFGVKARSILCCMRHQPNWSPKVVELCKKYQQQTVVAIDLAGDETIPGSSLLPGHVQAYQEAVKSGIHRTVHAGEVGSAEVVKEAVDILKTERLGHGYHTLEDQALYNRLRQENMHFEICPWSSYLTGAWKPDTEHAVIRLKNDQANYSLNTDDPLIFKSTLDTDYQMTKRDMGFTEEEFKRLNINAAKSSFLPEDEKRELLDLLYKAYGMPPSASAGQNL
notes: Secreted by Rv-ADA transduced 293 T cells in co-culture; also called ADA1; Rv-ADA
As to B1, the “ADA membrane binding efficiency (relative to secreted ADA-CD3)” value stood at 40%.
